Numbering of substitutions follows the chain as printed. Names and notes keep the numbering of the source.
T1: Human NKp30, construct BKM0179 (human, UniProt O14931 19-135, limits assumed)
T1 construct: Immobilized on a CM5 chip via anti-mouse Fc antibody, so it likely carries a mouse Fc; also called Human Nkp30 (BKM0179)
T1 sequence (looked up): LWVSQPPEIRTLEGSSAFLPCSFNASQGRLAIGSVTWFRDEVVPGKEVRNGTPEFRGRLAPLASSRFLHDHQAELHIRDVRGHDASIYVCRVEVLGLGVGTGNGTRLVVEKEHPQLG

B1: BJM0578 (bivalent) (antibody, V domains shown)
VH: QVQLVQSGAEVKKPGSSVKVSCKASGYTFTGYVMHWVRQAPGQGLEWMGFIIPIFGTANYAQKFQGRVTITSDKSTTTAYMELSSLRSEDTAVYYCARGAGYNFDGAYRFFDFWGQGTLVTVSS
VL: DVVMTQSPLSLPVTLGQPASISCRSSQRLVHSNGNTYLHWYQQRPGQSPRLLIYRVSNRFPGVPDRFSGSGSGTDFTLKISRVEAEDVGVYFCSQSTHVPYTFGGGTKVEIK
notes: Bivalent construct with a human Fc
B2: BKM0193 (single arm) (antibody, V domains shown)
VH: B1 VH
VL: B1 VL with G34A, T36A
notes: Single arm anti-TRBC1 construct with human Fc; also called G29A T31A
B3: BIM0460 (bivalent) (antibody, V domains shown)
VH: QVQLVQSGAEVKKPGSSVKVSCKASGYTFTGYVMHWVRQAPGQGLEWMGFINPYNDDIQSNERFRGRVTITSDKSTTTAYMELSSLRSEDTAVYYCARGAGYNFDGAYRFFDFWGQGTLVTVSS
VL: B1 VL
notes: Bivalent construct with a human Fc (captured via anti-human Fc antibody)
B4: BKM0191 (single arm) (antibody, V domains shown)
VH: B1 VH
VL: B1 VL with G34A
notes: Single arm anti-TRBC1 construct with human Fc; also called G29A
B5: BKM0195 (single arm) (antibody, V domains shown)
VH: B1 VH
VL: B1 VL with N35S
notes: Single arm anti-TRBC1 construct with human Fc; also called N30S
B6: BKM0192 (single arm) (antibody, V domains shown)
VH: B1 VH
VL: B1 VL with T36A
notes: Single arm anti-TRBC1 construct with human Fc; also called T31A
B7: BKM0194 (single arm) (antibody, V domains shown)
VH: B1 VH
VL: B1 VL with N33G
notes: Single arm anti-TRBC1 construct with human Fc; also called N28G
B8: BKM0196 (single arm) (antibody, V domains shown)
VH: B1 VH
VL: B1 VL with N33G, N35S
notes: Single arm anti-TRBC1 construct with human Fc; also called N28G N30S
B9: BJM1078 (BJM0407 Parental) (antibody, V domains shown)
VH: EIQLLESGGGLVQPGGSLRLSCAVSGFSITTTGYHWNWVRQAPGKGLEWVGYIYSSGSTSYNPSLKSRFTISRDTSKNTFYLQMNSLRAEDTAVYYCARGDWHYFDYWGQGTMVTVSS
VL: SSETTQPPSVSVSPGQTASITCSGEKLSDKYVHWYQQKPGQSPVMVIYENDRRPSGIPERFSGSNSGNTATLTISGTQAMDEADYFCQFWDSTNSAVFGGGTQLTVL
B10: BJM1079 (BJM0411 Parental) (antibody, V domains shown)
VH: B9 VH
VL: DSVTTQSPLSLPVTLGQPASISCSGEKLSDKYVHWYQQRPGQSPRMLIYENDRRPSGVPDRFSGSNSGNDATLKISRVEAEDVGVYFCQFWDSTNSAVFGGGTKVEIK
B11: BKM0140 (scFv)
scFv: EIQLLESGGGLVQPGGSLRLSCAVSGFSITTTGYHWNWVRQAPGKGLEWVGYIYSSGSTSYNPSLKSRFTISRDTSKNTFYLQMNSLRAEDTAVYYCARGDWHYFDYWGQGTMVTVSSGGGGSGGGGSGGGGSGGGGSSSETTQPPSVSVSPGQTASITCSGEKLSDKYVHWYQQKPGQSPVMVIYENDRRPSGIPERFSGSNSGNTATLTISGTQAMDEADYFCQFWASTNSAVFGGGTQLTVL
notes: also called BJM0407 VL-D92A
B12: BKM0141 (scFv)
scFv: B11 scFv with A229D, N232A
notes: also called BJM0407 VL-N95A
B13: BKM0145 (scFv)
scFv: B11 scFv with N62A, N232A
notes: also called BJM0407 VH-N60A-VL-D92A-N95A
B14: BKM0143 (scFv)
scFv: B11 scFv with N62A, A229D
notes: also called BJM0407 VH-N60A
B15: BKM0138 (scFv)
scFv: EIQLLESGGGLVQPGGSLRLSCAVSGFSITTTGYHWNWVRQAPGKGLEWVGYIYSSGSTSYNPSLKSRFTISRDTSKNTFYLQMNSLRAEDTAVYYCARGDWHYFDYWGQGTMVTVSSGGGGSGGGGSGGGGSGGGGSDSVTTQSPLSLPVTLGQPASISCSGEKLSDKYVHWYQQRPGQSPRMLIYENDRRPSGVPDRFSGSNSGNDATLKISRVEAEDVGVYFCQFWDSTASAVFGGGTKVEIK
notes: also called BJM0411 VL-N95A
B16: BKM0142 (scFv)
scFv: B15 scFv with N62A, A233N
notes: also called BJM0411 VH-N60A
B17: BKM0139 (scFv)
scFv: B15 scFv with D230A, A233N
notes: also called BJM0411 VL-D92A
B18: BKM0144 (scFv)
scFv: B15 scFv with N62A, D230A
notes: also called BJM0411 VH-N60A-VL-D92A-N95A
B19: BKM0313 (TRBC2/NKp30 bispecific) (bispecific antibody, human IgG1, kappa, N297A)
heavy: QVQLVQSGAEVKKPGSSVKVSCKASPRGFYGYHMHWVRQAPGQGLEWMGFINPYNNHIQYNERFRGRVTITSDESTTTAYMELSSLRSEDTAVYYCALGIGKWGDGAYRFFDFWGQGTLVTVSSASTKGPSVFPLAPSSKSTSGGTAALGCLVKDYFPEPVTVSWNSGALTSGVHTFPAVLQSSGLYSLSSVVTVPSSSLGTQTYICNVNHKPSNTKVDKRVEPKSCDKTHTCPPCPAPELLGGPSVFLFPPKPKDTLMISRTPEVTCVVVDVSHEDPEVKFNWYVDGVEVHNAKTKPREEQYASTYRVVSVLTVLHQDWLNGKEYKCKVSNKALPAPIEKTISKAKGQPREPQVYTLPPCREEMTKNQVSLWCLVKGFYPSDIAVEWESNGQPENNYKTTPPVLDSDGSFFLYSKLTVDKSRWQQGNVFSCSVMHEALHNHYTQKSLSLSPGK
light: DVVMTQSPLSLPVTLGQPASISCRSSKNLVHSNGRTYLQWYQQRPGQSPRLLIYRVSNRFPGVPDRFSGSGSGTDFTLKISRVEAEDVGVYFCSQSTREPYTFGGGTKVEIKRTVAAPSVFIFPPSDEQLKSGTASVVCLLNNFYPREAKVQWKVDNALQSGNSQESVTEQDSKDSTYSLSSTLTLSKADYEKHKVYACEVTHQGLSSPVTKSFNRGEC
scFv: EIQLLESGGGLVQPGGSLRLSCAVSGFSITTTGYHWNWVRQAPGKGLEWVGYIYSSGSTSYNPSLKSRFTISRDTSKNTFYLQMNSLRAEDTAVYYCARGDWHYFDYWGQGTMVTVSSGGGGSGGGGSGGGGSGGGGSDSVTTQSPLSLPVTLGQPASISCSGEKLSDKYVHWYQQRPGQSPRMLIYENDRRPSGVPDRFSGSNSGNDATLKISRVEAEDVGVYFCQFWDSTNSAVFGGGTKVEIKDKTHTCPPCPAPELLGGPSVFLFPPKPKDTLMISRTPEVTCVVVDVSHEDPEVKFNWYVDGVEVHNAKTKPREEQYASTYRVVSVLTVLHQDWLNGKEYKCKVSNKALPAPIEKTISKAKGQPREPQVCTLPPSREEMTKNQVSLSCAVKGFYPSDIAVEWESNGQPENNYKTTPPVLDSDGSFFLVSKLTVDKSRWQQGNVFSCSVMHEALHNHYTQKSLSLSPGK
notes: Knob chain TRBC2 Fab-Fc and hole chain NKp30 scFv-Fc; also called Anti-TRBC2-NKp30-BIS-9
B20: BKM0314 (TRBC2/NKp30 bispecific) (bispecific antibody, human IgG1, kappa, N297A)
heavy: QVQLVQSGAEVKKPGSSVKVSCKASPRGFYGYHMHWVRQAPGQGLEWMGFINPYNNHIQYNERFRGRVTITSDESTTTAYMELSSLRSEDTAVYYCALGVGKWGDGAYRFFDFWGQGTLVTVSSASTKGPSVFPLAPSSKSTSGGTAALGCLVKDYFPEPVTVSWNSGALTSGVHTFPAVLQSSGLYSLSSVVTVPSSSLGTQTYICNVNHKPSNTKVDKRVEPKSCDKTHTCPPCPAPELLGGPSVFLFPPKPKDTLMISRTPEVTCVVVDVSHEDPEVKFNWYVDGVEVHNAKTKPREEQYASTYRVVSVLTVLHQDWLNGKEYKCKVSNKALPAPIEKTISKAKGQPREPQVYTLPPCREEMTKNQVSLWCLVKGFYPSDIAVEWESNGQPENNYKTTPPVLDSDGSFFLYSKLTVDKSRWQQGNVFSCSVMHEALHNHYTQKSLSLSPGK
light: B19 light
scFv: B19 scFv
notes: Knob chain TRBC2 Fab-Fc and hole chain NKp30 scFv-Fc; also called Anti-TRBC2-NKp30-BIS-10

target: T2, human TRBC2 (hTRBC2), construct BIM0445 (human, UniProt A0A5B9 1-129, limits assumed); experiment: SPR (BIAcore T200), antibody captured via anti-human Fc
T2 construct: also called BIM0445 (hTRBC2)
T2 sequence (A0A5B9 1-129 limits assumed): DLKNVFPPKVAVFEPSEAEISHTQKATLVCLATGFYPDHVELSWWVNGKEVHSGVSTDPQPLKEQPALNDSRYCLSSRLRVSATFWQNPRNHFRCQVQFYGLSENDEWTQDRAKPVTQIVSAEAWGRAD

| Binder | binding result |
| --- | --- |
| B1 | no binding |
| B2 | no binding |
| B3 | no binding |
| B4 | no binding |
| B5 | no binding |
| B6 | no binding |
| B7 | no binding |
| B8 | no binding |

target: T3, human TRBC1 (hTRBC1), construct BIM0443 (human, UniProt P01850 1-129, limits assumed); experiment: SPR (BIAcore T200), antibody captured via anti-human Fc on CM5, hTRBC1 BIM0443 injected 15.6-500 nM, 1:1 fit
T3 construct: also called Human TRBC1 (BIM0443); BIM0443 (hTRBC1)
Procedure: (§1) In this example, a series of exemplary anti-TRBC1 antibody molecules were analyzed for their binding affinity for TRBC1. Briefly, surface plasmon resonance (SPR) measurements were performed by using the BIAcore T200. Each of the exemplary anti-TRBC1 antibody constructs was immobilized on a CM5 chip via anti-human Fc antibody to a response of 50 RU. […] The data was fit using a 1:1 binding model.

T3 sequence (P01850 1-129 limits assumed): as the sequence (A0A5B9 1-129 limits assumed) above, with K3N, N4K, K9E, Y36F counted along it

| Binder | Kd |
| --- | --- |
| B1 | 75 nM |
| B2 | 360 nM |
| B3 | 10 nM |
| B4 | 75 nM |
| B5 | 317 nM |
| B6 | 138 nM |
| B7 | 180 nM |
| B8 | 690 nM |

target: T1, Human NKp30, construct BKM0179; experiment: SPR (BIAcore T200), human NKp30 BKM0179 captured via anti-mouse Fc on CM5, antibody injected 3.9-125 nM, 1:1 fit
Procedure: as §1, with “anti-NKp30” for “anti-TRBC1”, “NKp30.” for “TRBC1.”, “Human NKp30 (BKM0179)” for “Each of the exemplary anti-TRBC1 antibody constructs”, “anti-mouse” for “anti-human”

| Binder | Kd |
| --- | --- |
| B9 | 1.48 nM |
| B10 | 1.26 nM |
| B11 | 3.3 nM |
| B12 | 3 nM |
| B13 | 4.2 nM |
| B14 | 1.45 nM |
| B15 | 3.2 nM |
| B16 | 1.28 nM |
| B17 | 3.2 nM |
| B18 | 6.4 nM |

target: T4, human TRBC2 (construct not named) (human, UniProt A0A5B9 1-129, limits assumed); experiment: SPR, bispecific captured via anti-human Fc on CM5, hTRBC2 from 125 nM in two-fold dilutions, 1:1 fit
T4 construct: also called hTRBC2
Procedure: In this example, surface plasmon resonance assay was performed to check binding of anti-TRBC2xNKp30 bispecific antibodies (bispecifics) to either hTRBC2, hTRBC1 or hNKp30 proteins. […] The bispecific antibodies may or may not have an N297A mutation in their Fc regions. FIG. 31B represents a design for monovalent TRBC2 control. Briefly, TRBC2xNKp30 bispecifics at 2 ug/mL were immobilized on CM5 chip via anti-human Fc antibody to 70 RU. Human TRBC2 or human TRBC1 antigens were diluted to 125 nM and then serially diluted two-fold. Association was 300 seconds and dissociation were 600 seconds. This assay was run in 1 x HBS-EP+ Buffer pH 7.4 and 25 C. The data was fit using a 1:1 binding model assess binding of bispecifics to NKp30, human NKp30 at 2 ug/mL was immobilized on CM5 chip via Anti-mouse Fc antibody to 70 RU. TRBC2xNKp30 bispecifics were diluted to 50 nM and then serially diluted two-fold. Association was 300 seconds and dissociation were 600 seconds. This assay was run in 1 x HBS-EP+ Buffer pH 7.4 and 25 C. The data was fit using a 1:1 binding model.

T4 sequence (A0A5B9 1-129 limits assumed): as the sequence (A0A5B9 1-129 limits assumed) above

| Binder | Kd |
| --- | --- |
| B19 | 148 nM |
| B20 | 92 nM |

Source: patent publication US20230357395A1 (MARENGO THERAPEUTICS, published 2023)
